Here are results for 16 sequences from a protein production outcome set (Wang et al. 2014).

A short description of this data set: label from the status in PepcDB records.
Turning to “MGDPQVNDTLAPSARHEGDALASAVAKVKRHVLPLFVIMFIVNYLDRVNIGFVRPHLESDLGISAAAYGFGAGLFFIGYALFEVPSNMLLQKVGARLWLTRIMFTWGLVATAMAFVQNETQFYVLRFLLGVAEAGFFPGVIYYFTRWLPAAERGKAIAIFLSGSALASLISGPLAGALMQIQGLGLHGWQWMLFIEGMASVALCFFVFFWLDSKPQDAKWLSKAEQDALVATIDREQQAREAIGAVRPSAWNLLKDRQIVLFCLIYFCIQLTIYAATFWLPSIIKRMGDLSDMQVGFFNSIPWLISILAMYAFAAGSARWKFQQAWVAGALLVAATGMFMSTTGGPVFAFVAVCFAAIGFKSASSLFWPIPQGYLDARIAAAVIALINSVGNLGGFVAPTTFGLLEQQTGSIQGGLYGLAVTSVLAAIAIFFVRTRPKGAPSDDLKAPSALGQTH”, the protein production result is reported as “failed”.

For “MGDSHDVCRQLLPRAIFGINGKVENGVRQHPVTGSIIFALGNKIGIADYKKNTQEFVAGHTNTISCLDLSKSGKYMASGQINHMGFRGYVIIWNYDQRKEIARHDLHKVSVQAICFTAQDRCVVSIGGVDDGSVIVFDMEAFSPICQTPASRAISGNALTVRPLHNNPYFFVTAGDRHLRLWSILREEKKLYVQDVLMASKTRVFYCARINKTDEFAYLGTGTGDIVKIVLNCCDRDHVSKQGSTSCILGAFGTHNPRKPTGRDCNRYVNGVRALYVLEGGRLLIGAGNGDIELVEERTDVPLINFRDYPGPTWPYLRTLKKTHVSGRISSFVRSKTDMFYICTDTNEIYGLNIKTWVLKLLRTCHTKSVYCITFPKNYSGVFATSGKECIRIWSSGRKQELLRIMVYNFNCACVRFTHDGTSIVSVWNDGIIRAFTPITGRLIYAIPNAHNKGCSALAVASSGRLIVTGGIEGQVRVWKIDPYRQDLVGVLKDHSGPITSLDINYLDTEVISACTDGSCVIWDIKRMTRKQVVTANTQFMSASYFPTGVQVITCGSDGRIIYWMVYNGALIRELTASKKSSVNCLAINETGDYFITVGSDLQVKLWDYNSGAVVGIGSEHASSVISCAYSPCMTMFVTGSTDGSLIIWDVPRDFWGRPNPPDVTKYSLPKTSSKTRMSDVPSRVNSGTNLKTTKGENIDGLLKATPKDDLCCVECPPCAKKDTKGVDPYAECGIVPDVRKC”, the protein production entry is recorded as “failed”.

Turning to “MGEEEMPVHPDLEAFIESIPWHRHLGLKVLALHPGHARLVIPFQAGFTGNAARGALHGGIIASLADSCGNAALWTHFGPDDRIATINIGVDYFRPAPLADLMAEAEVRLLGNRIGNVHVRLAPLAEPSQTVAEGRTVCYVKRMSLEHHHHHH”, the protein production entry was “failed”.

Take “MGEGALAPGLQLLLRACEQGDTDTARRLLEPGGEPVAGSEAGAEPAGPEAARAVEAGTPVPVDCSDEAGNSALQLAAAGGHEPLVRFLLRRGASVNSRNHYGWSALMQAARCGHASVAHLLLDHGADVNAQNRLGASVLTVASRGGHLGVVKLLLEAGATVDHRNPSGESTASGGSRDELLGITALMAAVQHGHEAVVRLLMEWGADPNHTARTVGWSPLMLAALLGKLSVVQQLVEKGANPDHLGVLEKTAFEVALDRKHRDLADYLDPLTTVRPKTDEEKRRPDIFHALKMGNFQLVKEIADEDPNHVNLVNGDGATPLMLAAVTGQLPLVQLLVEKHADMNKQDSVHGWTALMQATYHGNKEIVKYLLNQGADVTLRAKNGYTAFDLVMLLNDPDTELVRLLASVCMQVNKDRGGRPSHRPPLPHSKARQPWSIPMLPDDKGGLKSWWSRMSNRFRKLKLMQTLPRGLAANQPLPFSDEPELALDSTMRAPPQDRTNHLGPPEAAHAAKDSGPGNPRREKDDVLLTTMLRNGAPFPRLPSDKLKAVIPPFLPPSSFELWSSDRSRTCPNGKADPMKTVLPPRASRAHPVGCVGTDGAAGRPVKFPSISRSPTSPASSGNFNHSPHSSGGASGVGSMSRLGGELHNRSGGSVDSVLSQIAAQRKKAAGLCEQKPPCQQSSPVGPATGSSPPELPASLLGSGSGSSNVTSSSKKLDPGKRPPSGTSATSKSTSPTLTPSPSPKGHTAESSVSSSSSHRQSKSSGGSSSGTITDEDELTGILKKLSLEKYQPIFEEQEVDMEAFLTLTDGDLQELGIKTDGSRQQILAAISELNAGKGRERQILQETIHNFHSSFESSASNTRAPGNSPSMAGWVRPEETVSSRR”: the protein production result is listed as “failed”.

As to “MGEKPWQPLLQSFEKLSNCVQTHLSNFIGIKNTPPSSQSTIQNPIISLDSSPPIATNSSSLQKLPLKDKSTGPVTKEDLGRATWTFLHTLAAQMTILSRMYPCRECADHFKEILRSNPAQAGSQEEFSQWLCHVHNTVNRSLGKLVFPCERVDARWGKLECEQKSCDLHGTSMDF”, the protein production entry is “failed”.

For “MGENYKFFNHKDCEFFPCHKTNKPEEFNCLFCYCPLYALGENCGGNFKYTDKGIKDCSSCILPHKKDNYNYIMSKFQDLVKITSKKLEHHHHHH”, the protein production result was “failed”.

Regarding “MGESYSSGYSLVVRVIANDRSGLLRDITTILANEKVNVLGVASRSDTKQQLATIDMDIEIYNLQVLGRVLAKLNQLPDVIDARRQQGALEHHHHHH”, the protein production entry is recorded as “not failed”.

With “MGEVFAGRYELVDPIGRGGVGAVWRAWDHRRRRYVAAKVLQQRDAHSLLRFVREQALRIDHPHVLAPASWAADDDQVLFTMDLVTGGSLVHLVGDYGPLPPEFVCTLLDQLLSGLAAVHGEGVVHRDIKPANLLLEATGTGRPRLRLSDFGIAMRLGEPRLTETNLVVGTPGYLAPEQMMGAEPDFPSDLFAVGLVALYLLEGAKPDAKVLVQHFAEHGTPPAPRGIPEPLWQVVATLLQPDPSARFRTATGARKALAAAVELLPEPGPDDELIEIFDQVGPLPTGFGPEGPFKRASGVDDVPTDPRRPAGTPPGVDPSPPATPPTPPPAPPWQGTPPAGPSSGLDRPSPGSPGPPPTGPDSTPASPPPGTPVTATGTPSAPGLPPASDQGWTPSTPSGPTAPPSAPSAPSAPSAPGPTRPAPHGTHSEEVPLAERPGAMSETGSFHLPPPQPTVTPTSDAAASDAAAEAAQPPAPHPAFTGGPRGLPPDRAPGRSQHPAPHGPPLTARSLAPSPARRADVPTAAYTARNPRSAPPAQHRGARRRRRPGPPARVALPVLLLALACYAVGFWALTRI”, the protein production result is recorded as “failed”.

Turning to “MGEVFQKEAYAQELIDYYNQSTNDVLKRTASISENEKPRVLFLVYDQRKNSYWTPGGEFYQNNLITMAGGKTVSSDLPTGKAQINVEQAASWNPDVIITSAHTMEYPSTKVKEDVLTDEGWKEINAVKSGNVYAMPFDGESWDTLGSKYVLGLYWTAKTLEHHHHHH”, the protein production result was “not failed”.

As to “MGFIQWCLAHLNYWTIMFLMAIESSFIPFPSEIIVPPAAWMAATGQNGLNVFLVILFATIGAGIGAAVNYILSLLLGRPIVYAFANSKLGHLCLINEEKVRYAERYFDKNGAVSTLVGRLIPAVRQLISIPAGLARMKFLPFISYTMLGAGIWNCILAAIGYNLAKVPGIETQEQLLEKVNKYSHEIGFSIMGVVVVVLLIMFYKKKRRSARKGN”, the protein production entry is given as “failed”.

As to “MGGGDGRRIDAFVSYSRAADSRLAPSIQRGLARLAKKWYRTRALNVFRDQTDLSASHALGASIERALADARFFVLLASPAAAESKWVAKEIEFWQRNRTSDTFLVALTDGTIRWDDEAGDFDWSVTDALPRSLSGYFEAEPLWQDLTWSRDADRLSLWHAGFRDAVATLAAPIHGSSKRALDNAEVKEHRALLLVGALATALILTLAVSFGIQYWFATAERDRANANARDATVMSAIQRAQVELADAETGYDVSAYRRLMAARSLAGRPSVEGAAYDAALDAAYSRPNLLRVTEVDSGPDSRAAMTVDGGRVAFGGKEQPTLWSPGTGRPSGPALEAAETTDSKALALAFSRDGKRLAAAYEAAVVLWDVASGKKINEFATDRRTTTSLALSPDGTTVAVAGGGLRIWDAGSGRRIGEPLGVTGDRVVFSPDGRKLAFDALNDGGSEVHVRGVGAEGAGEVVIPYPHDVISGIAFTPDTDALAVGTEDGGLRLWDPDSGAAEGRAMSGHQGAIRAIAFAAGGSRIATAGADRTIRQWNAETGSPIGFPLTGHAGPVDFIAFSRGGSELVSLGEDATLRRWDAGNALLRTGPDDASAPDALAVAPRGAKVAVGGREGVRVFNQETGVQVAALDLPQGVLSLSYSPDGTSLLIVSPDALRLWEEGAEARTVTLDSSVGPVAGAAFMPHGRQIVVGSYAGKLLFEDLDDEATGTPGASIDITCAARHLAVSQDGMQVAYACDDTGGVADAEAGGVRTFEAEDRVSALVISPDGRTLILGTLDGTLWRLEHGAEALVGVGVHRGAVRSVAYGPDGRWFASAGEDGSVVVHPHGAREISARIPAHTGPVEAVAFSGDGSRLISLGADKAARVWHVFRDPPGDLCERITYNMSESDWKKWISDSFGYRDQCAGKPRAHG”, the protein production entry is recorded as “failed”.

With “MGGGGGSRGPGHAARIAAPPFRPPSPCPAMLAAGEMCGAAHCPARPAPVSCRDRPRRFSSPSPLPGSLFFSPVAAGRRVSRPIFLFCSFGGFCMQRFLTLALLGAAALGGALAQNAAPAPAPAPVAQPAPAPQTAPATPAAQPAAPAVRPPAANYVVVGNLYYDQGKFDQAYVAFRTAAELDPRNTQALLGLGRSQVRLRLYAPAVDTLRRLTTVDPQNVSGYVALSQAYQQQYMGSGDRASVTGNLDAALAVLQQAEAAVTALPEADRALAQSKLLNERGSVYRLQGKPTQAIEAFRQASALNPENSLLLFNLGDMYAASGQLPLAVSALQQAVILDPRDPYNRAYYAKLLALSGNLTSARVEAAQASRLVTGNAYATGQYGVVSYLAGDRTTARTQLAQAVRLDPLRYPEFYYYLGRLDLDGSDLKSARDNLTRAVALNSTSAEYAYYLGLAYERGVPGVAADNVRARENYDKALKLAPGYKQAQEGADRLKPPSSGN”, the protein production entry is recorded as “failed”.

With “MGGHPQLRLVKALLLLGLNPVSASLQDQHCESLSLASNISGLQCNASVDLIGTCWPRSPAGQLVVRPCPAFFYGVRYNTTNNGYRECLANGSWAARVNYSECQEILNEEKKSKVHYHVAVIINYLGHCISLVALLVAFVLFLRLRPGCTHWGDQADGALEVGAPWSGAPFQVRRSIRCLRNIIHWNLISAFILRNATWFVVQLTMSPEVHQSNVGWCRLVTAAYNYFHVTNFFWMFGEGCYLHTAIVLTYSTDRLRKWMFICIGWGVPFPIIVAWAIGKLYYDNEKCWFGKRPGVYTDYIYQGPMILVLLINFIFLFNIVRILMTKLRASTTSETIQYRKAVKATLVLLPLLGITYMLFFVNPGEDEVSRVVFIYFNSFLESFQGFFVSVFYCFLNSEVRSAIRKRWHRWQDKHSIRARVARAMSIPTSPTRVSFHSIKQSTAV”, the protein production entry is on record as “failed”.

“MGGIPDITPYPLTYSLGGVIPLSSVLEMLWVEKYRPRSLDDIVDQKHVVERLKQFVKQRNMPHLLFAGPPGTGKTTAAHALAHDLFGENYRQYMLELNASDERGINVIREKVKEFARSRTPPEIPFKIVLLDEADNMTSDAQQALRRLMELYSSVTRFILIANYPSKIIDPIQSRCAFFRFQPLSKQDVIERLRYIAENEGVDYEEEALDAIYEISEGDMRKAINVLQAASYLGKVTVDAVYRVVGMAKPREVREMLATALKGDFTAARSLLRKIMIEYGMSGEDVARQIHRELFSTELKMPEELRVLAADYLGEVHYRLVEGSDDDIQLSAFLAWLTMMSRKLEV”: the protein production result was “not failed”.

For “MGGIYRLSLKSTEATAERLSCDTRCNYEDRDLAYSPDGRWLAIARRFSNISEDIFIRDLASAHEKRLTQGLEDIRGLSWTPDSQALVFATEDSGSSNGFTLDINTAQIRSLDVEGMSYPSSVSAEGELVYHQYHRQFQMAYFSLGDKVPGSLFPLLYSGVSHRNPDYSPEAKRIVFVSSETG”, the protein production result is given as “failed”.

For “MGGKWSTPSFDEAARLVLGRGFHHVSLCAAGYFSDGNETIHRESVLSAIDPSVRVETIPCLNDSPHLIACLAGRVVAASRQILAFSGDLKG”, the protein production entry is “failed”.
